Where a chain is given by its changes, count along the chain named.
T1: POLγB-VV (UniProt Q9UHN1 26-485, V119A;V125A)
T1 sequence: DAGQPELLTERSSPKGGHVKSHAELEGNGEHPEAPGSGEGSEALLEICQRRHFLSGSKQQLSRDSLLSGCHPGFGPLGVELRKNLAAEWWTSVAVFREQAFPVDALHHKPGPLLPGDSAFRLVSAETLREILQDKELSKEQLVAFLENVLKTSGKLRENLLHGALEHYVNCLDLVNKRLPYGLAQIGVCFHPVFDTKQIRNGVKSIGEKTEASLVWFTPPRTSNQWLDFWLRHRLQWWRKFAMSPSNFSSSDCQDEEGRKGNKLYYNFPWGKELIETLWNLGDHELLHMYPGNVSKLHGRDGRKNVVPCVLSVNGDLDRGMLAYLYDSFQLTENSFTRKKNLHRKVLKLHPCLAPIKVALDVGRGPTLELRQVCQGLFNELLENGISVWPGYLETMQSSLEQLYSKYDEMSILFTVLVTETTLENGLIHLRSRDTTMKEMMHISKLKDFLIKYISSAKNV

T2: POLγB-RKK (UniProt Q9UHN1 26-485, R363A;K364A;K365A)
T2 sequence: T1 sequence with A94V, A100V, R338A, K339A, K340A

T3: POLγB wild type (accessory subunit of DNA polymerase γ) (UniProt Q9UHN1 26-485)
T3 sequence: T1 sequence with A94V, A100V

T4: POLγB-RK (UniProt Q9UHN1 26-485, R328A;K329A)
T4 sequence: T1 sequence with A94V, A100V, R303A, K304A

B1: primed DNA template (35-mer/20-mer) (mixed)
DNA 1: TTTTTTTTTTATCCGGGCTCCTCTAGACTCGACCG
DNA 2: CGGTCGAGTCTAGAGGAGCC
B2: 50-bp dsDNA probe (dsDNA)
DNA 1: GGCGTATATCCAAATTAAAAGCATTTTTGATTGCATATATATCATCAGCT
DNA 2: AGCTGATGATATATATGCAATCAAAAATGCTTTTAATTTGGATATACGCC

Key:
[1] = target: POLγA (catalytic subunit of DNA polymerase γ);POLγB-VV (Homo sapiens?;Homo sapiens?, UniProt P54098;Q9UHN1 26-1239;26-485, |V119A;V125A); experiment: EMSA supershift
POLγA (catalytic subunit of DNA polymerase γ);POLγB-VV, sequence (P54098 26-1239, stated change not applied, one chain of several): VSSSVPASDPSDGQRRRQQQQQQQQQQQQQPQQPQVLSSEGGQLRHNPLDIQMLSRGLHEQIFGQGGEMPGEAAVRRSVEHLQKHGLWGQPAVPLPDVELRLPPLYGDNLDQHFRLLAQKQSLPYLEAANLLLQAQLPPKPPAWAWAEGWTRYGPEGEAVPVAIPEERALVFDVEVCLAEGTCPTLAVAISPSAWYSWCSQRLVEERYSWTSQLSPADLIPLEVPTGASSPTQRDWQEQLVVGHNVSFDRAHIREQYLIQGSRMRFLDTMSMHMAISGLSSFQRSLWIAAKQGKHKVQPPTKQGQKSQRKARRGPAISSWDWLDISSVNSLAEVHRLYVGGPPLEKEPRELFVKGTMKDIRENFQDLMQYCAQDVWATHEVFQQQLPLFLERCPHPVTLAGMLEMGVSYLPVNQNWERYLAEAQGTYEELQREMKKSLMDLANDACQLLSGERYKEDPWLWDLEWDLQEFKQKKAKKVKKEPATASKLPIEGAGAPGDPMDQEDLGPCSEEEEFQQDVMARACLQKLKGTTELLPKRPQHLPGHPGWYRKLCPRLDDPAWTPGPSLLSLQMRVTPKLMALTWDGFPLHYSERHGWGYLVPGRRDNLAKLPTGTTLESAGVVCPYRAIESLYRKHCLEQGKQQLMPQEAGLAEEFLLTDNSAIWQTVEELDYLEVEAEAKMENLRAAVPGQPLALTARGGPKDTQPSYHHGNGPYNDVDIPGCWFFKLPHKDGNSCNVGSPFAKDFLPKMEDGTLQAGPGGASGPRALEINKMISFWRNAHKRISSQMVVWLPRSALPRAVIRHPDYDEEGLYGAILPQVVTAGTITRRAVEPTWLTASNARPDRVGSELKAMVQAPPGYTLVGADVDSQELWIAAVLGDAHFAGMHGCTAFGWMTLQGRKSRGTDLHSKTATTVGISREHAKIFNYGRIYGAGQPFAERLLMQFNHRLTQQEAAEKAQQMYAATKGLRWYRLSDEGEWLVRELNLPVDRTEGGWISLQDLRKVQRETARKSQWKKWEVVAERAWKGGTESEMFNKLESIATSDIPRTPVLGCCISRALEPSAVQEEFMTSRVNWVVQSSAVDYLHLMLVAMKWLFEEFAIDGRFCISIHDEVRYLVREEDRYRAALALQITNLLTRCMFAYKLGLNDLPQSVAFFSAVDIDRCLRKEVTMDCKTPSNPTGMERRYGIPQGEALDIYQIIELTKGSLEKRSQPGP

[2] = target: POLγA (catalytic subunit of DNA polymerase γ) (UniProt P54098 26-1239); experiment: EMSA
POLγA (catalytic subunit of DNA polymerase γ), sequence (P54098 26-1239): as the sequence (P54098 26-1239, stated change not applied, one chain of several) above

[3] = target: POLγA (catalytic subunit of DNA polymerase γ);POLγB-RKK (Homo sapiens?;Homo sapiens?, UniProt P54098;Q9UHN1 26-1239;26-485, |R363A;K364A;K365A); experiment: EMSA, competitor challenge
POLγA (catalytic subunit of DNA polymerase γ);POLγB-RKK, sequence (P54098 26-1239, stated change not applied, one chain of several): as above

[4] = target: POLγA (catalytic subunit of DNA polymerase γ);POLγB-RK (Homo sapiens?;Homo sapiens?, UniProt P54098;Q9UHN1 26-1239;26-485, |R328A;K329A); experiment: EMSA, competitor challenge
POLγA (catalytic subunit of DNA polymerase γ);POLγB-RK, sequence (P54098 26-1239, stated change not applied, one chain of several): as above

POLγB-VV = target: T1, POLγB-VV; experiment: EMSA
POLγB-RKK = target: T2, POLγB-RKK; experiment: EMSA
[5] = target: T3, POLγB wild type (accessory subunit of …); experiment: EMSA
POLγB-RK = target: T4, POLγB-RK; experiment: EMSA

Binder | binding result [1] | binding result [2] | binding result [3] | binding result [4] | binding result (POLγB-VV) | binding result (POLγB-RKK) | binding result [5] | binding result (POLγB-RK)
B1 | binds | binds | binds | binds | – | – | – | –
B2 | – | – | – | – | binds | no binding | binds | no binding
